Experimental data as given in patent US20220306695A1, “COMPSTATIN ANALOGUES AND THEIR MEDICAL USES” (priority 2019, published 2022).
Positions of bridges follow the written chain, without caps; N, C: chain ends. Non-standard residues stand in square brackets, D forms with d. Trp(1-Me) = Cn1cc(C[C@H](N)C(=O)O)c2ccccc21; NMeI = CC[C@H](C)[C@H](NC)C(=O)O; Sar = CNCC(=O)O

B1: Compound 47 (peptide)
peptide: Ac-ICIWQDWGAHRCTGAES-NH2
modifications: disulfide 2-12
SMILES: CC[C@H](C)[C@H](NC(C)=O)C(=O)N[C@H]1CSSC[C@@H](C(=O)N[C@H](C(=O)NCC(=O)N[C@@H](C)C(=O)N[C@@H](CCC(=O)O)C(=O)N[C@@H](CO)C(N)=O)[C@@H](C)O)NC(=O)[C@H](CCCNC(=N)N)NC(=O)[C@H](Cc2c[nH]cn2)NC(=O)[C@H](C)NC(=O)CNC(=O)[C@H](Cc2c[nH]c3ccccc23)NC(=O)[C@H](CC(=O)O)NC(=O)[C@H](CCC(N)=O)NC(=O)[C@H](Cc2c[nH]c3ccccc23)NC(=O)[C@H]([C@@H](C)CC)NC1=O
B2: Compound 48 (peptide)
peptide: H-[dY]ICI[Trp(1-Me)]QDW[Sar]AHRC[NMeI]-NH2
modifications: disulfide 3-13
SMILES: CC[C@H](C)[C@H](NC(=O)[C@H](N)Cc1ccc(O)cc1)C(=O)N[C@H]1CSSC[C@@H](C(=O)N(C)[C@H](C(N)=O)[C@@H](C)CC)NC(=O)[C@H](CCCNC(=N)N)NC(=O)[C@H](Cc2c[nH]cn2)NC(=O)[C@H](C)NC(=O)CN(C)C(=O)[C@H](Cc2c[nH]c3ccccc23)NC(=O)[C@H](CC(=O)O)NC(=O)[C@H](CCC(N)=O)NC(=O)[C@H](Cc2cn(C)c3ccccc23)NC(=O)[C@H]([C@@H](C)CC)NC1=O
B3: Compound 46 (peptide)
peptide: Ac-ESSAICIWQDWGAHRCT-NH2
modifications: disulfide 6-16
SMILES: CC[C@H](C)[C@H](NC(=O)[C@H](C)NC(=O)[C@H](CO)NC(=O)[C@H](CO)NC(=O)[C@H](CCC(=O)O)NC(C)=O)C(=O)N[C@H]1CSSC[C@@H](C(=O)N[C@H](C(N)=O)[C@@H](C)O)NC(=O)[C@H](CCCNC(=N)N)NC(=O)[C@H](Cc2c[nH]cn2)NC(=O)[C@H](C)NC(=O)CNC(=O)[C@H](Cc2c[nH]c3ccccc23)NC(=O)[C@H](CC(=O)O)NC(=O)[C@H](CCC(N)=O)NC(=O)[C@H](Cc2c[nH]c3ccccc23)NC(=O)[C@H]([C@@H](C)CC)NC1=O
B4: Compound 55 (peptide)
peptide: Ac-EGSAICIWQDWGEHRCTE-NH2
modifications: disulfide 6-16
SMILES: CC[C@H](C)[C@H](NC(=O)[C@H](C)NC(=O)[C@H](CO)NC(=O)CNC(=O)[C@H](CCC(=O)O)NC(C)=O)C(=O)N[C@H]1CSSC[C@@H](C(=O)N[C@H](C(=O)N[C@@H](CCC(=O)O)C(N)=O)[C@@H](C)O)NC(=O)[C@H](CCCNC(=N)N)NC(=O)[C@H](Cc2c[nH]cn2)NC(=O)[C@H](CCC(=O)O)NC(=O)CNC(=O)[C@H](Cc2c[nH]c3ccccc23)NC(=O)[C@H](CC(=O)O)NC(=O)[C@H](CCC(N)=O)NC(=O)[C@H](Cc2c[nH]c3ccccc23)NC(=O)[C@H]([C@@H](C)CC)NC1=O
B5: Compound 51 (peptide)
peptide: Ac-ICI[Trp(1-Me)]QDWGEHRCTGAES-NH2
modifications: disulfide 2-12
SMILES: CC[C@H](C)[C@H](NC(C)=O)C(=O)N[C@H]1CSSC[C@@H](C(=O)N[C@H](C(=O)NCC(=O)N[C@@H](C)C(=O)N[C@@H](CCC(=O)O)C(=O)N[C@@H](CO)C(N)=O)[C@@H](C)O)NC(=O)[C@H](CCCNC(=N)N)NC(=O)[C@H](Cc2c[nH]cn2)NC(=O)[C@H](CCC(=O)O)NC(=O)CNC(=O)[C@H](Cc2c[nH]c3ccccc23)NC(=O)[C@H](CC(=O)O)NC(=O)[C@H](CCC(N)=O)NC(=O)[C@H](Cc2cn(C)c3ccccc23)NC(=O)[C@H]([C@@H](C)CC)NC1=O

biological target: Human C3 (human, UniProt P01024 23-1663); test: cell-based or functional assay
Sequence (P01024 23-1663 limits assumed): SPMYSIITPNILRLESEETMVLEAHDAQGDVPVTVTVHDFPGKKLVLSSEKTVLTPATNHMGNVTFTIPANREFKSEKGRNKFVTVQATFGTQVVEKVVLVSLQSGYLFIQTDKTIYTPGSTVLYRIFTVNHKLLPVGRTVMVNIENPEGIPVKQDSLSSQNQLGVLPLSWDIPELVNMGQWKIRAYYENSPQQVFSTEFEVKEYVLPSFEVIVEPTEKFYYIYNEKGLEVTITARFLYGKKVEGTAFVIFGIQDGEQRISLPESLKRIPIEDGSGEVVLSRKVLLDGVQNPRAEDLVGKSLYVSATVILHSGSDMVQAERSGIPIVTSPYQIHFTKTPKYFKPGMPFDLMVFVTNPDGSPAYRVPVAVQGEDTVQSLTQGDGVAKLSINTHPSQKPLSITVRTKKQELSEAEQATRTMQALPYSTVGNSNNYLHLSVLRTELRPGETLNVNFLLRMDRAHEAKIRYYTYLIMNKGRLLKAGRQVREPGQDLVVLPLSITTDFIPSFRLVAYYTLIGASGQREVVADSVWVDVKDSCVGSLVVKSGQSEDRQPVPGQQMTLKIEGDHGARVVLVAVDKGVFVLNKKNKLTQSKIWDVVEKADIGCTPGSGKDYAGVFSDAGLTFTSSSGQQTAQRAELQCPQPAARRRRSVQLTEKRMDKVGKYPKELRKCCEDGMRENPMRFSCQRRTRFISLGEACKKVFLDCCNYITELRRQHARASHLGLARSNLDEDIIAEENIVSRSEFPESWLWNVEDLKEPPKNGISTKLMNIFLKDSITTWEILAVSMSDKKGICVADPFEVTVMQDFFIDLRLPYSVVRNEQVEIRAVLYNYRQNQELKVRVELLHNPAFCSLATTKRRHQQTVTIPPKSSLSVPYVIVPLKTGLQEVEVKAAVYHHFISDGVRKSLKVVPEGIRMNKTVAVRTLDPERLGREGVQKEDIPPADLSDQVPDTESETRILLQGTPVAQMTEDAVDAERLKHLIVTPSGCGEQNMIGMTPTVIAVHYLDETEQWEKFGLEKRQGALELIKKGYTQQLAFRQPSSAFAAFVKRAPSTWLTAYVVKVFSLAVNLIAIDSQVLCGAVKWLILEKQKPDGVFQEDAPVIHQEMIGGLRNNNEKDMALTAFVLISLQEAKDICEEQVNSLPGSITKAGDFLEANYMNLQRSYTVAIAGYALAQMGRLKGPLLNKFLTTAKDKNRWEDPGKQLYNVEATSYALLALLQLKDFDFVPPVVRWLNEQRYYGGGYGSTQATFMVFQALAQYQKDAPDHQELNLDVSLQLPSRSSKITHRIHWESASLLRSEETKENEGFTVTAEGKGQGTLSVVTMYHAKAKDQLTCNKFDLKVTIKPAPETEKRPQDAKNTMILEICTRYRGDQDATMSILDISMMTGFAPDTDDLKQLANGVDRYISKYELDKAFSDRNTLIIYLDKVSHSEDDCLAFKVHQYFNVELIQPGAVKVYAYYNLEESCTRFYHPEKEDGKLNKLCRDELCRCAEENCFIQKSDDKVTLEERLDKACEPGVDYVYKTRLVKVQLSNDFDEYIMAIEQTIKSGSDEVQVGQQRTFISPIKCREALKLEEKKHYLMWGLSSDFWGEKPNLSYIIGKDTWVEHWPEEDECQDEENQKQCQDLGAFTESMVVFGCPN

| Binder | IC50[nM], inhibition of hemolysis [nM] |
| --- | --- |
| B1 | < 100 |
| B2 | < 100 |
| B3 | < 100 |
| B4 | < 250 |
| B5 | < 100 |
